From US12312398B2, “Compositions and methods for targeting activin signaling to treat cancer” (The Johns Hopkins University, priority 2016, dated 2025)

Experiments:
[1] = tested on: SMAD; assay: SMAD phosphorylation by western blot in CD4+ T cells; format: cell-based, mice; conditions: CD4+CD25− T cells, anti-CD3/anti-CD28 24 hrs, then 12 hours treatment; Activin 5 or 10 ng/ml; TGF-β 0.5 or 2 ng/ml; versus untreated
Procedure: Cells were harvested and subjected to SDS-PAGE and Western blot with the indicated antibodies.
Since Activin has been reported to promote SMAD signaling in non-T cells (Schmierer, B., et al., J Biol Chem, 2003. 278:21197-203), whether Activin signaling in T cells could have a similar effect was examined SMAD activity was assessed by western blot analysis of SMAD phosphorylation.

[2] = tested on: naïve CD4+ T cells; assay: In vitro Treg differentiation, intracellular Foxp3 by flow cytometry; format: cell-based, mice
Procedure: Naïve CD4+ T cells from Yap1f/f,Foxp3-yfpCre+ (KO) and Yap1 wt/wt,Foxp3ypfCre+ (WT) mice were stimulated with anti-CD3/CD28 antibodies (1 and 4 ug/ml, respectively) for 3 days in the presence of IL-2 (100 U/ml) and the indicated doses of TGFβ and exogenous Activin A. A low dose of TGF-beta and/or activin was also administered to the indicated samples (activin was dosed at 50 ng/ml on day 0 and day 2 of culture). Treg induction (via detection of intracellular Foxp3 up-regulation) was determined by flow cytometry.
To explore the involvement of Activin/ACVR1C signaling in the driving of Treg differentiation by YAP, the effects of supplemental Activin on in vitro Treg commitment was also investigated. Activation of wild type naïve CD4+ T cells without TGFI3 yielded little-to-no Foxp3 induction.
Naïve CD4+ T cells (CD4+ CD25− CD62LHi) were sorted on a FACS Aria high speed sorter. The sorted cells were activated with plate-bound aCD3 (10 ug/ml) and soluble aCD28 (2ug/ml) in a 24-well plate with the following polarizing conditions: Th1 (IL-12 (10 ng/ml), aIL-4 (10 ug/ml)), Th2 (IL-4 (10 ng/ml), aIFN-g(10 ug/ml), aIL-12 (10 ug/ml)), Th17 (IL-6 (10 ng/ml), TGF-b1 (1.25 ng/ml), IL-23 (10 ng/ml), IL-1b(10 ng/ml), aIFN-g (10 ug/ml), aIL-4 (10 ug/ml), Treg (TGFb1 (5 ng/ml), IL-2 (100IU/ml).
For extracellular staining, harvested cells were washed and incubated in PBS containing 1% FBS containing the below fluorochrome-conjugated antibodies in a U-bottom 96-well plate. For intracellular cytokine staining, harvested cells were re-stimulated in PMA and Ionomycin in the presence of Golg-Plug (BD Biosciences). After 5 hour incubation, the cells were fixed/permeablized (eBioscience) and incubated with antibodies. IFN-g PE, IFN-g APC, IL-13 PE, IL-17 APC (BD Bioscience), IL-2 APC (BD Pharmingen), Foxp3 PE (eBioscience). For cellular proliferation, Cell Trace CFSE cell proliferation kit (Invitrogen) was used per manufacture's manual.

Molecule: TGF-β: anti-inflammatory cytokine TGF-β, inducer of Foxp3 expression
- SMAD phosphorylation (phospho-SMAD) [1]: induced SMAD phosphorylation
- Foxp3+ T cell induction (Treg induction) ([2]; wild type naïve CD4+ T cells, anti-CD3/CD28, IL-2 (100 U/ml), 3 days, activin 50 ng/ml on day 0 and day 2, low (suboptimal) dose TGF-β): modest up-regulation of Foxp3

B1: Activin: Activin (or Activin A), a dimeric member of the TGF-β Superfamily, added exogenously to T cells (protein, UniProt P08476 311-426, looked up)
Inhibin beta A chain: GLECDGKVNICCKKQFFVSFKDIGWNDWIIAPSGYHANYCEGECPSHIAGTSGSSLSFHSTVINHYRMRGHSPFANLKSCCVPTKLRPMSMLYYDDGQNIIKKDIQNMIVEECGCS
modifications: Inhibin beta A chain homodimer
- SMAD phosphorylation (phospho-SMAD) [1]: elevation of phospho-SMAD
- Foxp3+ T cell induction (Treg induction) ([2]; Foxp3-driven YAP knockout (Foxp3Cre+/Yap1f/f) naïve CD4+ T cells, anti-CD3/CD28, IL-2, 3 days): not seen
- Foxp3+ T cell induction (Treg induction) ([2]; wild type naïve CD4+ T cells, anti-CD3/CD28, IL-2 (100 U/ml), 3 days, activin 50 ng/ml on day 0 and day 2, low (suboptimal) dose TGF-β, listed as Activin A): generated a population of Foxp3+ cells
